Measured values reported in patent US20110263454A1, “Methods of Identifying Functional Characteristics of Promoters, Transcription Modifying Proteins and Transcription Modulating Agents” (Salk Institute for Biological Studies, priority 2008, published 2011).

What was measured:
mPOMC promoter = assay: NHR-promoter luciferase screen, mPOMC promoter; type: cell-based, mouse; details: for Results of assays of transcription factor (+/- ligand) with mPOMC: Table 6d, luciferase activity relative to control (control = 1.00); for Luc. act., normalized to lacZ / Normalized Luc. act., normalized to control: mPOMC promoter, HR component with or without ligand; for Normalized Luc. act., normalized to control: relative to control
Description: (§1) The use, feasibility, and reproducibility of the functional NHR-promoter screen in a 48-well format have been tested validated. Briefly, there were co-expressed 50 ng of each NHR/NHR homodimer or NHR/RXR heterodimer with 100 ng promoter/luciferase construct and 50 ng of LacZ (as a control for transfection efficiency) in CV-1 cells using Fugene HD (Roche) as a transfection reagent (alternatively or additionally, a CMV-YFP construct can be used as a transfection control). Each of the nuclear hormone receptors that were used in these experiments was cloned into a pcDNA3.1 vector and comprised a C-terminally linked V5H6 tag. Twenty-four hours after transfection, appropriate ligands were added, where applicable, (see Table 5 for various ligands and concentrations and after 48 hrs, samples were assayed for luciferase and LacZ activity. To measure for luciferase activity 15 ul of sample was added to 30 ul of luciferase buffer (20 mM tricine, 1.07 mM MgCarbonate, 2.67 mM MgSulfate, 0.1 mM Naz-EDTA, 5 mM DTT, 5 mM ATP, 0.15 mg/ml CoA, 0.5 mM Luciferin), mixed briefly, and run in a Perkin Elmer Victor 5 luminometer. Thus, the functional NHR-promoter screen was used to observe the transcriptional activity of 29 promoters from various physiological pathways including inflammation, lipid and sugar metabolism, cholesterol transport, xenobiotic metabolism, and circadian rhythm.
(§2) The promoters that facilitate transcription of the indicated gene products that were tested using the protocols described herein are listed in the first row of the table. The nuclear hormone receptors and, where applicable, ligands that were assayed for their transcriptional effects on the promoters are listed in the first column of the table. The data represent the luciferase activity of each sample normalized to both the lacZ activity of that sample and to a control, e.g., no NHR or ligand, as customary in the art. As described previously, these normalizations allow the transcriptional activity of each reporter cell to be compared to other samples.
(§3) Tables 7-40 show the transcriptional effects of the hormone receptors, and, where applicable, ligands (orphan receptors are screened without ligand), on each individual promoter. […] The control data of each table are shown in their last rows.

RevErba promoter = assay: NHR-promoter luciferase screen, RevErba (RVRa) promoter; type: cell-based; set-up: key to mRevErba promoter reporter activity / Normalized Luc. act., normalized to control: luciferase activity normalized to lacZ and to control (no NHR/ligand); details: for Luc. act., normalized to lacZ / Normalized Luc. act., normalized to control / negative reciprocal of normalized Luc. act. (fold repression; Table 33) / normalized Luc. act. on a logarithmic scale (column without head, Table 33): RVRa promoter; for Luc. act., normalized to lacZ / Normalized Luc. act., normalized to control: HR component without or with ligand; for negative reciprocal of normalized Luc. act. (fold repression; Table 33): given only where activity is below control; for normalized Luc. act. on a logarithmic scale (column without head, Table 33): log10 of activity normalized to control; for mRevErba promoter reporter activity: transcription factor +/- ligand, control = 1.00
Description: Briefly, there were co-expressed 50 ng of each NHR/NHR homodimer or NHR/RXR heterodimer with 100 ng promoter/luciferase construct and 50 ng of LacZ (as a control for transfection efficiency) in CV-1 cells using Fugene HD (Roche) as a transfection reagent (alternatively or additionally, a CMV-YFP construct can be used as a transfection control). Each of the nuclear hormone receptors that were used in these experiments was cloned into a pcDNA3.1 vector and comprised a C-terminally linked V5H6 tag.
as §2
The control data of each table are shown in their last rows.

mADRP promoter = assay: NHR-promoter luciferase screen, mADRP promoter; type: cell-based, mouse; details: for Luc. act., normalized to lacZ / Normalized Luc. act., normalized to control: ADRP promoter, HR/ligand component; for mADRP promoter reporter activity: transcription factor +/- ligand, control = 1.00
Description: as §1, §2, §3

mAdiponectin promoter = assay: NHR-promoter luciferase screen, mAdiponectin promoter; type: cell-based, mouse; details: for Luc. act., normalized to lacZ / Normalized Luc. act., normalized to control: Adiponectin, HR component without or with its ligand; for mAdiponectin promoter reporter activity: transcription factor +/- ligand, control = 1.00
Description: as §1, §2, §3

mAgrp promoter = assay: NHR-promoter luciferase screen, mAgrp promoter; type: cell-based, mouse; details: for Results of assays of transcription factor (+/- ligand) with mAgrp: Table 6d, luciferase activity relative to control (control = 1.00); for Luc. act., normalized to lacZ / Normalized Luc. act., normalized to control: mAgrp promoter, HR component with or without ligand; for Normalized Luc. act., normalized to control: relative to control
Description: as §1, §2, §3

Molecule	Results of assays of transcription factor (+/- ligand) with mPOMC (mPOMC promoter)	Luc. act., normalized to lacZ (mPOMC promoter)	Normalized Luc. act., normalized to control (mPOMC promoter)	Luc. act., normalized to lacZ (RevErba promoter)	Normalized Luc. act., normalized to control (RevErba promoter)	negative reciprocal of normalized Luc. act. (fold repression; Table 33) (RevErba promoter)	normalized Luc. act. on a logarithmic scale (column without head, Table 33) (RevErba promoter)	mRevErba promoter reporter activity (RevErba promoter)	Luc. act., normalized to lacZ (mADRP promoter)	Normalized Luc. act., normalized to control (mADRP promoter)	mADRP promoter reporter activity (mADRP promoter)	Luc. act., normalized to lacZ (mAdiponectin promoter)	Normalized Luc. act., normalized to control (mAdiponectin promoter)	mAdiponectin promoter reporter activity (mAdiponectin promoter)	Results of assays of transcription factor (+/- ligand) with mAgrp (mAgrp promoter)	Luc. act., normalized to lacZ (mAgrp promoter)	Normalized Luc. act., normalized to control (mAgrp promoter)
RVRb: Rev-Erb β (NR1D2, alternative name RVR), cDNA driver (protein, UniProt Q14995 1-579, looked up) Nuclear receptor subfamily 1 …: MEVNAGGVIAYISSSSSASSPASCHSEGSENSFQSSSSSVPSSPNSSNSDTNGNPKNGDLANIEGILKNDRIDCSMKTSKSSAPGMTKSHSGVTKFSGMVLLCKVCGDVASGFHYGVHACEGCKGFFRRSIQQNIQYKKCLKNENCSIMRMNRNRCQQCRFKKCLSVGMSRDAVRFGRIPKREKQRMLIEMQSAMKTMMNSQFSGHLQNDTLVEHHEQTALPAQEQLRPKPQLEQENIKSSSPPSSDFAKEEVIGMVTRAHKDTFMYNQEQQENSAESMQPQRGERIPKNMEQYNLNHDHCGNGLSSHFPCSESQQHLNGQFKGRNIMHYPNGHAICIANGHCMNFSNAYTQRVCDRVPIDGFSQNENKNSYLCNTGGRMHLVCPMSKSPYVDPHKSGHEIWEEFSMSFTPAVKEVVEFAKRIPGFRDLSQHDQVNLLKAGTFEVLMVRFASLFDAKERTVTFLSGKKYSVDDLHSMGAGDLLNSMFEFSEKLNALQLSDEEMSLFTAVVLVSADRSGIENVNSVEALQETLIRALRTLIMKNHPNEASIFTKLLLKLPDLRSLNNMHSEELLAFKVHP	0.85	58.4	0.8	2.06	0.1	−13.5606	−1.13	0.07	353.2	0.7	0.71	66.3	1.1	1.06	1.05	41.7	1.1
RORg: RAR-related Orphan Receptor γ (NR1F3), cDNA driver (protein, UniProt P51449 1-518, looked up) Nuclear receptor ROR-gamma: MDRAPQRQHRASRELLAAKKTHTSQIEVIPCKICGDKSSGIHYGVITCEGCKGFFRRSQRCNAAYSCTRQQNCPIDRTSRNRCQHCRLQKCLALGMSRDAVKFGRMSKKQRDSLHAEVQKQLQQRQQQQQEPVVKTPPAGAQGADTLTYTLGLPDGQLPLGSSPDLPEASACPPGLLKASGSGPSYSNNLAKAGLNGASCHLEYSPERGKAEGRESFYSTGSQLTPDRCGLRFEEHRHPGLGELGQGPDSYGSPSFRSTPEAPYASLTEIEHLVQSVCKSYRETCQLRLEDLLRQRSNIFSREEVTGYQRKSMWEMWERCAHHLTEAIQYVVEFAKRLSGFMELCQNDQIVLLKAGAMEVVLVRMCRAYNADNRTVFFEGKYGGMELFRALGCSELISSIFDFSHSLSALHFSEDEIALYTALVLINAHRPGLQEKRKVEQLQYNLELAFHHHLCKTHRQSILAKLPPKGKLRSLCSQHVERLQIFQHLHPIVVQAAFPPLYKELFSTETESPVGLSK	1.30	89.5	1.3	67.79	2.4		0.38	2.42	929.8	1.9	1.87	133.3	2.1	2.12	2.51	99.6	2.5
RVRa: Rev-Erb α (NR1D1), cDNA driver (protein, UniProt P20393 1-614, looked up) Nuclear receptor subfamily 1 …: MTTLDSNNNTGGVITYIGSSGSSPSRTSPESLYSDNSNGSFQSLTQGCPTYFPPSPTGSLTQDPARSFGSIPPSLSDDGSPSSSSSSSSSSSSFYNGSPPGSLQVAMEDSSRVSPSKSTSNITKLNGMVLLCKVCGDVASGFHYGVHACEGCKGFFRRSIQQNIQYKRCLKNENCSIVRINRNRCQQCRFKKCLSVGMSRDAVRFGRIPKREKQRMLAEMQSAMNLANNQLSSQCPLETSPTQHPTPGPMGPSPPPAPVPSPLVGFSQFPQQLTPPRSPSPEPTVEDVISQVARAHREIFTYAHDKLGSSPGNFNANHASGSPPATTPHRWENQGCPPAPNDNNTLAAQRHNEALNGLRQAPSSYPPTWPPGPAHHSCHQSNSNGHRLCPTHVYAAPEGKAPANSPRQGNSKNVLLACPMNMYPHGRSGRTVQEIWEDFSMSFTPAVREVVEFAKHIPGFRDLSQHDQVTLLKAGTFEVLMVRFASLFNVKDQTVMFLSRTTYSLQELGAMGMGDLLSAMFDFSEKLNSLALTEEELGLFTAVVLVSADRSGMENSASVEQLQETLLRALRALVLKNRPLETSRFTKLLLKLPDLRTLNNMHSEKLLSFRVDAQ	1.13	77.9	1.1	9.76	0.3	−2.865	−0.46	0.35	522.2	1.0	1.05	55.2	0.9	0.88	1.21	47.9	1.2
RORa: RAR-related Orphan Receptor α (NR1F1), cDNA driver (protein, UniProt P35398 1-523, looked up) Nuclear receptor ROR-alpha: MESAPAAPDPAASEPGSSGADAAAGSRETPLNQESARKSEPPAPVRRQSYSSTSRGISVTKKTHTSQIEIIPCKICGDKSSGIHYGVITCEGCKGFFRRSQQSNATYSCPRQKNCLIDRTSRNRCQHCRLQKCLAVGMSRDAVKFGRMSKKQRDSLYAEVQKHRMQQQQRDHQQQPGEAEPLTPTYNISANGLTELHDDLSNYIDGHTPEGSKADSAVSSFYLDIQPSPDQSGLDINGIKPEPICDYTPASGFFPYCSFTNGETSPTVSMAELEHLAQNISKSHLETCQYLREELQQITWQTFLQEEIENYQNKQREVMWQLCAIKITEAIQYVVEFAKRIDGFMELCQNDQIVLLKAGSLEVVFIRMCRAFDSQNNTVYFDGKYASPDVFKSLGCEDFISFVFEFGKSLCSMHLTEDEIALFSAFVLMSADRSWLQEKVKIEKLQQKIQLALQHVLQKNHREDGILTKLICKVSTLRALCGRHTEKLMAFKAIYPDIVRLHFPPLYKELFTSEFEPAMQIDG	2.08	143.4	2.1	86.91	3.1		0.49	3.11	976.2	2.0	1.96	80.0	1.3	1.27	1.65	65.6	1.7
